This is an account of results in US20240218071A1 (ANHUI BIOX VISION BIOLOGICAL TECHNOLOGY, published 2024).

For orientation: EC50 (read off the curve) means the concentration needed to bring the measured effect to its halfway point. High values mean a less potent agent, low ones a more potent agent. The term Kd denotes a measure of binding affinity in units of concentration. As usually defined, the koff is a measure of how fast the partners let go of each other. Read a high koff as a short-lived complex. The kon is the second-order rate constant of association. Low values mean slower complex formation, high ones faster complex formation.

For experiment [1], the target named is T1, human CD40 expressed on the cell surface (human, UniProt P25942 21-277).
T1 construct: whole, on cells; Used for transfected CHO-K cells, for transfected Jurkat reporter cells (Met1-Gln277) and for the natural CD40 on Ramos cells and iDC; also called CHO-K-huCD40 cells; CHO cells expressing CD40
As to the kind of experiment: flow cytometry on CHO-K-huCD40 cells, APC anti-human IgG secondary antibody. The method, then: (§1) 100 μL of diluted anti-CD40 candidate antibody prepared in example 4.3 was added to the 96-well plate. After incubation at 4° C. for 30 min, the cells were washed 5 times with a FACS buffer (PBS+5% FBS+2% BSA), added with 100 μL of APC-labeled anti-human IgG secondary antibody, and then incubated at 4° C. for 30 min. The cells were then washed and tested by flow cytometry.

The target of experiment [2] is T2, full-length mouse CD40 expressed on CHO-K cells (mouse, UniProt P27512 20-289).
T2 construct: whole, on cells; also called CHO-K-mouseCD40 cells; mouse CD40 antigen
The experiment in a line: flow cytometry on CHO-K-mouseCD40 cells, FITC anti-human IgG Fc secondary antibody. Here is the method:
The cross-reactivity of the affinity variant candidate antibody prepared in example 4.3 to mouse CD40 was tested using artificially constructed CHO-K cells expressing full-length mouse CD40 (Uniprot #P27512) (CHO-K-mouseCD40 cells). The CHO-K cells expressing mouse CD40 were seeded into a 96-well plate at 1.0×10⁵ cells/well. 100 μL of diluted affinity variant candidate antibody and the control antibody (APX005) were added to the 96-well plate, respectively. […] The cells were then washed and tested by flow cytometry.
On the technique in general: Flow cytometry measures light scatter and fluorescence of single cells or particles in a stream.

The target in experiment [3] is T3, P17-His protein (human CD40 antigen) (human, UniProt P25942 21-193, limits assumed).
T3 construct: also called human CD40 antigen (P17-His)
As to the kind of experiment: BLI (Fortebio Octet RED96), antibody on Protein A sensor, P17-His 5-40 nM. The method, then:
In this example, the affinity of C8 parent antibody (C8-WT) and affinity variant antibody for human CD40 antigen (P17-His) was detected using an Fortebio Octet RED96 instrument.
Material preparation: 1 g of BSA and 500 μL of Tween 20 were added to 1000 mL of 1×PBS and mixed uniformly. The mixture was filtered, and then subpackaged and stored. 0.1 mL of glycine solution (0.1 M, pH 2.0) was pipetted, 0.9 mL of ultrapure water was added, and the mixture was mixed uniformly. The antibodies were diluted to 10 μg/mL with a KB buffer, and the antigens were diluted with a KB buffer to serial concentration gradients, i.e., 40 nM, 20 nM, 10 nM, 5 nM and 0 nM.
Experiment procedure: The sample plate (GreinierBio, PN655209) was tested after a sensor (Protein A sensor) was pre-wetted in the dark for at least 10 min, and after confirming the accuracy, the test was performed according to the preset programs. KB buffer was added at 200 μL/well to the wells of columns 1, 10 and 12 of sample plate 1; the glycine solution (0.01 M, pH 2.0) was added to the wells of column 11; the prepared sample solution was added to the wells of columns 2-8 (5 replicate wells for one sample); and P17-His was sequentially added to the wells of column 9 in a descending order of the concentration.

The target of experiment [4] is T1, human CD40 expressed on the cell surface. The experiment in a line: flow cytometry on CHO-K-huCD40 cells, APC anti-human IgG secondary antibody. Here is the method: as §1
This is another data set of the same source.

Experiment [5] has the same target. The experiment in a line: cell-based or functional assay.

Where two headings read alike, the source gives them in different places.

T3 sequence (P25942 other isoform, or with tags, fused parts or gaps limits assumed): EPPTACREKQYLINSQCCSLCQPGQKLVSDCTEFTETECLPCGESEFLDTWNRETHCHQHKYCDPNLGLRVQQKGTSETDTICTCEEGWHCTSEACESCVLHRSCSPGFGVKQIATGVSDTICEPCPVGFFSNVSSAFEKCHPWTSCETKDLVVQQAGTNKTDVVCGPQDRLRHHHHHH
T1 sequence (P25942 21-277): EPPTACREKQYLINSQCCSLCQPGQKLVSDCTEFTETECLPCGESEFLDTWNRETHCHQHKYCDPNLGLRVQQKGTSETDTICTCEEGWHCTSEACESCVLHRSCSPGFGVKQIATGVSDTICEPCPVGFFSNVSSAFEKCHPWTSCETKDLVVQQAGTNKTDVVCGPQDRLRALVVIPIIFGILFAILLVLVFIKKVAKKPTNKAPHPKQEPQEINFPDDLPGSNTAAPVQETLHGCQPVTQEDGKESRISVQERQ
T2 sequence (P27512 20-289): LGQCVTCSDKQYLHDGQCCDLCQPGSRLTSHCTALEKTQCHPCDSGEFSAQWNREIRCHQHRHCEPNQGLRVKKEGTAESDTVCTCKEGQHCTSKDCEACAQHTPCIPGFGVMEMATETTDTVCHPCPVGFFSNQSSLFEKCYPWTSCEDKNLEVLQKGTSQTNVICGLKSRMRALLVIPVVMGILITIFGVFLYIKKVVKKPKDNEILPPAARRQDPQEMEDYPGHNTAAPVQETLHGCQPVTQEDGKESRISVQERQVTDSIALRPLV

B1: C8-8 antibody (antibody, V domains shown)
VH: EVQLLESGGGLVRPGGSLRLSCAASGFTFGSYEMNWVRQAPGKGLEWVSYISSSGETTDYADSVKGRFTVSRDNSKNLLYLQMNSLRAEDTAVYYCARDVFFFDSSGPPGAYGMDVWGQGTMVTVSS
VL: DIQLTQSPSSLTASVGDRVTITCRSSQGIRSSLAWYQQKPGKPPKLLIYGASSLEGGVPSRFSGSGSGTDFTLTISSLQPEDFATYYCQQLNSFPSTFGQGTKLEIK
For B1, the “EC50 (read off the curve)” value in experiment [1] was about 0.7 µg/mL. Besides, the binding result in experiment [2] is listed as “binds”. In experiment [3], this molecule registered a dissociation constant (Kd) of 10.3 nM, a koff of 0.011 s⁻¹ and an on-rate (kon) of 1.07e+06 M⁻¹ s⁻¹.

B2: C8-1 antibody (antibody, V domains shown)
VH: EVQLLESGGGLVRPGGSLRLSCAASGFTFGSYEMNWVRQAPGKGLEWVSYISSSGETTDYADSVKGRFTVSRDNSKNLLYLQMNSLRAEDTAVYYCARDVFFFDSSGDNGAYGMDVWGQGTMVTVSS
VL: DIQLTQSPSSLTASVGDRVTITCRSSQGIRSSLAWYQQKPGKPPKLLIYGASSLEGGVPSRFSGSGSGTDFTLTISSLQPEDFATYYCQQLASFPSTFGQGTKLEIK
Take B2: the “EC50 (read off the curve)” value in experiment [4] is about 0.8 µg/mL. For the same molecule, the binding result in experiment [2] was “binds”. Besides, in experiment [3], the Kd is 12.7 nM, the koff came to 0.0148 s⁻¹ and the kon came out at 1.16e+06 M⁻¹ s⁻¹.

B3: C8-6 antibody (antibody, V domains shown)
VH: EVQLLESGGGLVRPGGSLRLSCAASGFTFGSYEMNWVRQAPGKGLEWVSYISSSGETTDYADSVKGRFTVSRDNSKNLLYLQMNSLRAEDTAVYYCARDVFFFDSSGSPGAYGMDVWGQGTMVTVSS
VL: DIQLTQSPSSLTASVGDRVTITCRSSQGIRSSLAWYQQKPGKPPKLLIYGASSLEGGVPSRFSGSGSGTDFTLTISSLQPEDFATYYCQQLNSFPSTFGQGTKLEIK
As for B3, in experiment [4], the “EC50 (read off the curve)” value is about 0.8 µg/mL. For the same molecule, the “CD95 expression on Ramos cells without crosslinking agent (FACS)” value in experiment [5] is about 10 times weaker than APX005. For the same molecule, the binding result in experiment [2] is “binds”. In experiment [3], this molecule came in with an equilibrium dissociation constant (Kd) of 9.04 nM, a koff of 0.00984 s⁻¹ and a kon of 1.09e+06 M⁻¹ s⁻¹.

B4: C8-4 antibody (antibody, V domains shown)
VH: EVQLLESGGGLVRPGGSLRLSCAASGFTFGSYEMNWVRQAPGKGLEWVSYISSSGETTDYADSVKGRFTVSRDNSKNLLYLQMNSLRAEDTAVYYCARDVFFFDSSGPRGAYGMDVWGQGTMVTVSS
VL: DIQLTQSPSSLTASVGDRVTITCRSSQGIRSSLAWYQQKPGKPPKLLIYGASSLEGGVPSRFSGSGSGTDFTLTISSLQPEDFATYYCQQLNSFPSTFGQGTKLEIK
Regarding B4, in experiment [4], the “EC50 (read off the curve)” value is about 0.8 µg/mL. Also, the binding result in experiment [2] is “no binding (tested: 20 µg/mL)”. In addition, in experiment [3], the Kd turned out to be 5.34 nM, the dissociation rate constant (koff) was determined as 0.00725 s⁻¹ and the kon was 1.36e+06 M⁻¹ s⁻¹.

B5: C8-9 antibody (antibody, V domains shown)
VH: EVQLLESGGGLVRPGGSLRLSCAASGFTFGSYEMNWVRQAPGKGLEWVSYISSSGETTDYADSVKGRFTVSRDNSKNLLYLQMNSLRAEDTAVYYCARDVFFFDSSRPNGAYGMDVWGQGTMVTVSS
VL: DIQLTQSPSSLTASVGDRVTITCRSSQGIRSSLAWYQQKPGKPPKLLIYGASSLEGGVPSRFSGSGSGTDFTLTISSLQPEDFATYYCQQLNSFPSTFGQGTKLEIK
On to B5, for which the “EC50 (read off the curve)” value in experiment [1] was about 0.9 µg/mL. In experiment [5], the “CD95 expression on Ramos cells without crosslinking agent (FACS)” value was about 10 times weaker than APX005. In experiment [2], the binding result is “binds”. Moreover, in experiment [3], the equilibrium dissociation constant (Kd) was determined as 9.27 nM, the off-rate constant (koff) stood at 0.0112 s⁻¹ and the kon came to 1.21e+06 M⁻¹ s⁻¹.

B6: C8-2 antibody (antibody, V domains shown)
VH: EVQLLESGGGLVRPGGSLRLSCAASGFTFGSYEMNWVRQAPGKGLEWVSYISSSGETTDYADSVKGRFTVSRDNSKNLLYLQMNSLRAEDTAVYYCARDVFFFSPSGDNGAYGMDVWGQGTMVTVSS
VL: DIQLTQSPSSLTASVGDRVTITCRSSQGIRSSLAWYQQKPGKPPKLLIYGASSLEGGVPSRFSGSGSGTDFTLTISSLQPEDFATYYCQQLNSFPSTFGQGTKLEIK
As for B6, in experiment [4], the “EC50 (read off the curve)” value was about 0.8 µg/mL. Moreover, the “CD95 expression on Ramos cells without crosslinking agent (FACS)” value in experiment [5] is about 10 times weaker than APX005. Further, the binding result in experiment [2] is recorded as “binds”. In experiment [3], this molecule came in with a Kd of 11.9 nM, a koff of 0.0111 s⁻¹ and an association rate constant (kon) of 932000 M⁻¹ s⁻¹.

B7: C8-10 antibody (antibody, V domains shown)
VH: EVQLLESGGGLVRPGGSLRLSCAASGFTFGSYEMNWVRQAPGKGLEWVSYISSSGETTDYADSVKGRFTVSRDNSKNLLYLQMNSLRAEDTAVYYCARDVFFFDSSGFPGAYGMDVWGQGTMVTVSS
VL: DIQLTQSPSSLTASVGDRVTITCRSSQGIRSSLAWYQQKPGKPPKLLIYGASSLEGGVPSRFSGSGSGTDFTLTISSLQPEDFATYYCQQLNSFPSTFGQGTKLEIK
For B7, the 50% effective concentration (EC50 (read off the curve)) in experiment [1] is about 0.9 µg/mL. For the same molecule, the “CD95 expression on Ramos cells without crosslinking agent (FACS)” value in experiment [5] was about 10 times weaker than APX005. The binding result in experiment [2] was “binds”. Besides, in experiment [3], the dissociation constant (Kd) worked out at 6.82 nM, the koff turned out to be 0.00847 s⁻¹ and the kon amounted to 1.24e+06 M⁻¹ s⁻¹.

B8: C8-7 antibody (antibody, V domains shown)
VH: EVQLLESGGGLVRPGGSLRLSCAASGFTFGSYEMNWVRQAPGKGLEWVSYISSSGETTDYADSVKGRFTVSRDNSKNLLYLQMNSLRAEDTAVYYCARDVFFFDSSGDNHAYGMDVWGQGTMVTVSS
VL: DIQLTQSPSSLTASVGDRVTITCRSSQGIRSSLAWYQQKPGKPPKLLIYGASSLEGGVPSRFSGSGSGTDFTLTISSLQPEDFATYYCQQLNSFPSTFGQGTKLEIK
On to B8, for which the “EC50 (read off the curve)” value in experiment [1] was about 0.9 µg/mL. For the same molecule, the binding result in experiment [2] is listed as “binds”. In experiment [3], the Kd was found to be 12.4 nM, the koff was 0.0111 s⁻¹ and the association rate constant (kon) was found to be 895000 M⁻¹ s⁻¹.

B9: C8-5 antibody (antibody, V domains shown)
VH: EVQLLESGGGLVRPGGSLRLSCAASGFTFGSYEMDWVRQAPGKGLEWVSYISSSGETTDYADSVKPRFTVSRDNSKNLLYLQMNSLRAEDTAVYYCARDVFFFDSSGDNGAYGMDVWGQGTMVTVSS
VL: DIQLTQSPSSLTASVGDRVTITCRSSQGIRSSLAWYQQKPGKPPKLLIYGGSSLEGGVPSRFSGSGSGTDFTLTISSLQPEDFATYYCQQLNSFPSTFGQGTKLEIK
With B9, in experiment [4], the concentration giving a half-maximal response (EC50 (read off the curve)) was about 0.8 µg/mL. For the same molecule, the binding result in experiment [2] is “no binding (tested: 20 µg/mL)”. In experiment [3], this molecule had a Kd of 8.23 nM, a koff of 0.00818 s⁻¹ and a kon of 994000 M⁻¹ s⁻¹.

B10: C8-3 antibody (antibody, V domains shown)
VH: EVQLLESGGGLVRPGGSLRLSCAASGFTAGSYEMNWVRQAPGKGLEWVSYISSSGETTDYADSVKGRFTVSRDNSKNLLYLQMNSLRAEDTAVYYCARDVFFFDSSGDNGAYGMDVWGQGTMVTVSS
VL: DIQLTQSPSSLTASVGDRVTITCRSSQGIRSSLAWYQQKPGKPPKLLIYGASSLEVGVPSRFSGSGSGTDFTLTISSLQPEDFATYYCQQLNSFPSTFGQGTKLEIK
Regarding B10, the 50% effective concentration (EC50 (read off the curve)) in experiment [4] was about 0.8 µg/mL. The binding result in experiment [2] was “no binding (tested: 20 µg/mL)”. In experiment [3], this molecule registered a Kd of 4.51 nM, a koff of 0.0111 s⁻¹ and a kon of 2.46e+06 M⁻¹ s⁻¹.

B11: APX005M (antibody, V domains shown)
VH: QVQLVESGGGVVQPGRSLRLSCAASGFSFSSTYVCWVRQAPGKGLEWIACIYTGDGTNYSASWAKGRFTISKDSSKNTVYLQMNSLRAEDTAVYFCARPDITYGFAINFWGPGTLVTVSS
VL: DIQMTQSPSSLSASVGDRVTIKCQASQSISSRLAWYQQKPGKPPKLLIYRASTLASGVPSRFSGSGSGTDFTLTISSLQPEDVATYYCQCTGYGISWPIGGGTKVEIK
Turning to B11, the “EC50 (read off the curve)” value in experiment [4] was about 0.7 µg/mL. In addition, the concentration giving a half-maximal response (EC50 (read off the curve)) in experiment [1] was about 0.8 µg/mL. In experiment [3], this molecule registered a Kd of 6.3 nM, a koff of 0.0124 s⁻¹ and an association rate constant (kon) of 1.98e+06 M⁻¹ s⁻¹.
